Data published in a protein production outcome set (Wang et al. 2014).

Assay: label from the status in PepcDB records

Sequence	protein production
MSAPSSPSTSQTRPPARSLWRRRRTWFLVGGGGLGAAAVVVLLGIWWRSPTPEAAIALRQSDFAELRWQSRFAMDAATRQRARFLYALAIAPDQPQAALQALQGLERSYPLLGPYILKLRAQVQTQLGQDPRETWRQLLNTYPESPVQAEAVLALGQWDLAPATIQRWPRYPASNELARQLAKRQPAEAKRWLLQIAQFGRYRFDIDAVLSELQALPNLTARDRQQIADAYWQRDDYATAADLYARSPQTDETLYRQARSLDLTSQPEVARTLYQQLLQRFPQSPERERALVHLVRLDPANRDRYLQLLERQFALSLPEALGLAAATEPRYRPILLQRFPASPEAAALRWQQAWQQAEAGNLPQAIALVTQTRDRSPTIEAAAQAGFWLGRWQTQLGQTDAAQAAWQWVLQQHPDSYYAWRSAAALGWPVGDFSQVQAQQPAWPQAQSPQALPAGSAVLKELYALGQTEDAWRLWQQEGPSRDPSPSDRFISALLEASISRYDRAASLLKGLPIDSPLRQRSDFVSTLYPVVFKEEITAATQRDRLNPLLVLGLIRQESRFLPGATSVVGARGLMQLMPETAAEVAAELGLQQYDLGDPQTNIQLGSRYLRNVLDYWREDSLFAIASYNAGPGNVENWVRRFGRRDRDRWLEQIPFPETRDYVEKVLSNYWNYLRQSDRSLEQRLQQLDR	failed
MSARMFVLCCIWFIVAFLWITITSALDKEWMIDGRGINNVCDVLMYLEEDDTRDVGVIMTLPLFFPFLWFALWRKKRGWFMYATALAIFGYWLWQFFLRYQFCL	failed
MSARSGFWYACSPPSAPGWCRFFDLLTCCTDEDGLMRDVALCCRSIAIDVRGLLRIDTQEGSAEKLRPSQTDVFNALASFLVAVGSQPYCNLASHPRHLDALAIPDTRYPIPDTQPMTFREPVDLVALNAASRDTLIEHLGIVFTEAGDDWLRATMPVDARTRQPYGLLHGGASVVLAETLGSSAGNLCVDMTTRMCVGLEINANHLRAATQGLVTGTARAVHVGRSTHVWDITIENPVGKRVCVSRLTLAVVARGNG	failed
MSASICCRCNEKIWPRAVCSLGKTYHPHHFTCKECGLVVDPKLFFAVDDDVVCSECYLDKHAARCSACRTPILERGVAAAERKWHEKCFRCVSCSKSLVSASFFEVNGYLFCKAHFRELFSSRCAGCEKPIDRRAVVALSTKWHAKCFKCHHCRKRISAREFWIENGQPICAACQTVVPSPRNLSAQ	failed
MSASIMTWPVLSVVTFLPVLGAALVYLARGEDEAARRNARWISLWTTLITFAVSLLLVWHFDPANPGFQFVEKAPWLGNTITYHMGLDGISLPLVILTTAIMPFCIIASWRSVTVRVREYMIAFLILETLMIGTFSALDLVLFYLFFEGGLIPMFLIIGIWGGPRRVYASFKFFLYTLLGSVLMLLAIMALYWNAGTTDIPTLMRTSVPSGLQTWAWLAFFASFAVKMPMWPVHTWLPDAHVEAPTAGSVVLAAILLKMGGYGFLRFSLPMFPDASAYFAPLIYTLSVIAIIYTSLVALMQEDIKKLIAYSSVAHMGFVTMGIFAGTTQGVAGAVFQMVSHGIVSGALFLCVGVVYDRMHTREIAAYGGLVNRMPLYALVFMVFTMANVGLPGTSGFVGEFLTLLGTFRVNIPTATLATTGVILSAGYALWLYRKVVFGAMTKPALASIKDLTWREGLMMAPLLVLTILFGFYPKPVLDMSAASVQQLVNNYAAAVTAVKAAALP	failed
MSASPQAPTPPDRSSPSVSSNLGAEGAGGRRLCGSVVLSAGKILSVDKTLWQALGLSAESLSGLPFLSFLEDPSREVLAARLRLAGPPWDLRTALRVDGRAIPVVLRGDGAADRTTDTPLQVILITLAPQEGEVEPVSQSALFDHIPLGVMLSDGLGRIAYANPAFLAEDIAAVRALLGATPQALATGYLHEGLARTLWEDLLCGRVWRNDVDLPTADGQRTHSRLTIIPLRRDDGAVDRLMTVIEPRSPATDSQAWQQVNHDTLTGLPNRVLFQDRLLTALASARRRNDQLAVLFVDLDHFKTVNDSLGHSFGDQLLQQVATRLSQCLRDSDTLARMGGDEFTIALTGDGHQRDYAMIANRILETLRRPFTLEGGHEVLIGSSIGITLFPNDAEDVDTLLRNADTAMYRAKASGRNAFQFFTEEMNREIQSHLDLENALRRAVRAMDLTIHYQPVVDSATLAVVSAEALVRWPLADKGFIPPSRFIPVAEELGLIDEIGGWVLWNACTQAKVWQAQGAKAFRVSVNVSWRQLRNPDFALRVREALEGTGLGAAFLELEITEGMVLRDPQGIAPALMALSEMGVALAIDNFGSGHSSIKCLRQFPFSILKLDRSCVADVLTSHEDAVLVETAAIMARRLGLTVVAEGVETHAQLEFLREHYCDLIQGYLFGRPLPPEDFARML	failed
